Two molecules from paper PMC10484735 can be followed below.

As usually defined, the Kd is the equilibrium constant for the complex coming apart.

Data set [1] deals with gp32 (WT) (bacteriophage T4). Description: optical tweezers (koff/kon). To be noted: 15 pN tension; kon 0.003 nM-1 s-1; cooperative binding to bare ssDNA; Optical tweezers buffer, pH and temperature not in the material (lower salt than AFM; 15 pN for Kd); AFM: 150 mM Na+, 100 uM spermidine, 37 C, 5 min.
Data set [2] relates to *II (gp32 N-terminal truncate) (bacteriophage T4). Description: optical tweezers (koff/kon). Conditions: 15 pN tension; kon 0.0024 nM-1 s-1, koff 0.11 s-1; Optical tweezers buffer, pH and temperature not in the material (lower salt than AFM; 15 pN for Kd); AFM: 150 mM Na+, 100 uM spermidine, 37 C, 5 min.
For data set [3], the target named is Bacteriophage T4 gene 32 protein (gp32), full-length (bacteriophage T4) (UniProt P03695).
Data set [4] has the same target. The source holds these as a separate data set.
Data set [5] shares this target. This is another data set of the same source.

With 8.1 knt ssDNA (optical tweezers), the values for the Kd in data set [1] and in data set [2] were 1 nM and 46 nM, respectively.

B1: Bacteriophage T4 gene 32 protein (gp32), full-length (natural protein)
chain: MFKRKSTAELAAQMAKLNGNKGFSSEDKGEWKLKLDNAGNGQAVIRFLPSKNDEQAPFAILVNHGFKKNGKWYIETCSSTHGDYDSCPVCQYISKNDLYNTDNKEYSLVKRKTSYWANILVVKDPAAPENEGKVFKYRFGKKIWDKINAMIAVDVEMGETPVDVTCPWEGANFVLKVKQVSGFSNYDESKFLNQSAIPNIDDESFQKELFEQMVDLSEMTSKDKFKSFEELNTKFGQVMGTAVMGGAAATAAKKADKVADDLDAFNVDDFNTKTEDDFMSSSSGSSSSADDTDLDDLLNDL
Molecule B1 gave a rate of ssDNA compaction after bimolecular binding (kc, two-step fit of k+1 against gp32 concentration at 15 pN, optical tweezers) in data set [3] of 1.5 s^−1. This molecule also returned a maximal compaction of 8.1 knt ssDNA at 15 pN (optical tweezers, constant force), WT gp32 against the noncooperative truncate *II that lacks the N-terminal domain in data set [4] of 4 fold. The molecule further returned a persistence length of the gp32–ssDNA complex (WLC fit of force-extension curves up to 5 pN, optical tweezers; plateau at gp32 ≥25 nM, up to 1 μM) in data set [5] of 20 nm.
